From patent US20060264369, “Aptamers to von Willebrand Factor and their use as thrombotic disease therapeutics” (published 2006)

Experiments:
[1] = target: von Willebrand factor A1 domain (human) (Homo sapiens, UniProt P04275 SEQ:13-246); test: filter; 100 nM protein
Source text: When a significant positive ratio of binding of RNA in the presence of human or rabbit vWF A1 domain versus in the absence of protein was seen, the pools were cloned using the TOPO TA cloning kit (Invitrogen, Cat.# 45-0641, Carlsbad, Calif.) according to the manufacturer's instructions. Round 9 and 12 pool templates were cloned and sequenced (125 total sequences), producing 48 unique clones. All unique clones were transcribed, desalted, 5-³²P end-labeled, and assayed in a 3-point dot blot screen (no protein target control, 100 nM human vWF A1 domain (SEQ ID NO 5, FIG. 3), or 100 nM rabbit vWF A1 domain (SEQ ID NO 6, FIG. 3). The data is presented in the third and fourth columns of Table 4 below as the ratio of the fraction of the aptamer bound to the nitrocellulose in the presence of the target protein to the fraction of aptamer bound in the absence of the target protein.

[2] = target: von Willebrand factor A1 domain (Homo sapiens, UniProt P04275 SEQ:13-246); test: filter; DPBS, 0.1 mg/mL BSA, RT; details: label: 5'-32P
Method: (§1) KD values were calculated by fitting the equation y=(max/(1+K/protein))+yint using KaleidaGraph (KaleidaGraph v. 3.51, Synergy Software).

[3] = target: T1, von Willebrand factor full length (Homo sapiens, UniProt P04275 SEQ:764-2813); test: filter; DPBS, 0.1 mg/mL BSA, RT; details: tags: Calbiochem 681300; label: 5'-32P
Method: as §1

[4] = target: T1, von Willebrand factor full length; test: filter; 26% bound at 100 nM vWF; details: tags: Calbiochem 681300; label: 5'-32P
Method: (§2) For KD determination, chemically synthesized aptamers were purified using denaturing polyacrylamide gel electrophoresis, 5′end labeled with γ-³²P ATP and were tested for direct binding to full length human vWF (Calbiochem Cat.# 681300, La Jolla, Calif.). An 8 point protein titration was used in the dot blot binding assay (100 nM, 30 nM, 10 nM, 3 nM, 1 nM, 300 pM, 100 pM, 0 pM)) in 1× Dulbecco's PBS containing […] (final volume of 50 uL) for 30 minutes at room temperature. KD values were calculated by fitting the equation y=(max/(1+K/protein))+yint using KaleidaGraph (KaleidaGraph v. 3.51, Synergy Software).

[5] = target: T1, von Willebrand factor full length; test: filter; 46% bound at 100 nM; details: tags: Calbiochem 681300
Method: as §2

[6] = target: T1, von Willebrand factor full length; test: filter; 40% bound at 100 nM; details: tags: Calbiochem 681300
Method: as §2

[7] = target: T1, von Willebrand factor full length; test: filter; 43% bound at 100 nM; details: tags: Calbiochem 681300
Method: as §2

[8] = target: T1, von Willebrand factor full length; test: filter; 20 nM protein; details: tags: Calbiochem 681300
[9] = target: T2, von Willebrand factor A1 domain (rabbit) (Oryctolagus cuniculus); test: filter; 20 nM protein; details: tags: 6xHis
T2 chain: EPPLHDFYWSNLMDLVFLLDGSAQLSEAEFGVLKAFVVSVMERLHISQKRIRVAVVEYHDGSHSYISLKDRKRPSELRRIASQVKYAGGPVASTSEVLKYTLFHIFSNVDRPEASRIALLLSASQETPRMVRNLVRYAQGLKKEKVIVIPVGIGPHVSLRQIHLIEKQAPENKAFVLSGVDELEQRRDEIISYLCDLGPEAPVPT

[10] = target: T1, von Willebrand factor full length; test: filter; DPBS, 0.1 mg/mL BSA, RT; details: tags: Calbiochem 681300; label: 5'-32P; remark: listed apart in the source
Method: Based on this initial screen, KDs were determined for 3 of the vWF dependent binding sequences using the dot blot assay. […] A 12 point protein titration was used in the dot blot assay (300 nM, 100 nM, 30 nM, 10 nM, 3 nM, 1 nM, 300 pM, 100 pM, 30 pM, 10 pM, 3 pM, 0 pM) in 1× DPBS plus 0.1 mg/mL BSA at room temperature for 30 minutes. KD values were calculated by fitting the equation y=(max/(1+K/protein))+yint using KaleidaGraph (KaleidaGraph v. 3.51, Synergy Software).

B1: AMX201.H4 (ssRNA)
RNA: GGAGCGCACUCAGCCACUAACGGUUGAUCUCAGGACUAAUAGUCAACAAGGAUGCGUUUCGACCUCUCUGCUAGC
modifications: 2'-F pyrimidines
For B1, which binding signal [1] is on record?
Its binding signal is 1.79 ratio to no protein.

B2: AMX201.D4 (ssRNA)
RNA: GGAGCGCACUCAGCCACUGGGGCUGAUCUCGCACGAUAGUUCGUGUCAAGGAUGCGUUUUCGACCUCUCUGCUAGC
modifications: 2'-F pyrimidines
Which binding signal [1] does the source give for B2 here?
Its binding signal is 2.23 ratio to no protein.

B3: AMX201.B11 (ssRNA)
RNA: GGAGCGCACUCAGCCACACCGAGGCUGGAUAUCUACGAGAGGAAGUGCUGCUUGAAUUUCGACCUCUCUGCUAGC
modifications: 2'-F pyrimidines
Which binding signal [1] does the source give for B3 here?
Its binding signal is 1.55 ratio to no protein.

B4: AMX201.D10 (ssRNA)
RNA: GGAGCGCACUCAGCCACACUGAGGCUGGAUAUCUACGAGAGGAAGUGCUGCUUGGAUUUCGACCUCUCUGCUAGC
modifications: 2'-F pyrimidines
With B4 as the binder, how does the binding signal [1] read?
Its binding signal is 1.59 ratio to no protein.

What does the source list for GGAGCCACACGACATTGGCGGGCGAGAGCCACGCATGGCTCC (mixed, 2'-OH purines, deoxy pyrimidines) [rRdY minimer SEQ 192]?
Kd [2]: 4 nM; Kd [3]: 2 nM

For GGGACGGGGTGGGTAGACGGCGGGTATGTCCC (mixed, 2'-OH purines, deoxy pyrimidines) [rRdY minimer SEQ 183], which Kd [3] is on record?
The Kd was 10 nM.

B5: AMX201.D3 (ssRNA)
RNA: GGAGCGCACUCAGCCACGCCCACGUCAAAUUAUAGUCUACUUUGAUGUGCCCGUGGUUUCGACCUCUCUGCUAGC
modifications: 2'-F pyrimidines
Which binding signal [1] does the source give for B5 here?
The binding signal was 1.76 ratio to no protein.

GGAGCCACGGGGTGGGTAGACGGCGGGTATGTGGCTCC (mixed, 2'-OH purines, deoxy pyrimidines) [rRdY minimer SEQ 180] was tested. Which Kd [2] did it give?
The Kd was 11 nM.

And the Kd [3]?
The Kd was 1 nM.

B6: AMX201.H11 (ssRNA)
RNA: GGAGCGCACUCAGCCACCCUGUCGUCUUUUGGUAGUCAGCCAAAAGCUAGUUGGUUGUUUCGACCUCUCUGCUAGC
modifications: 2'-F pyrimidines
How did the binding signal [1] turn out when B6 was run?
Its binding signal is 1.75 ratio to no protein.

For GGCGTGCAGTGCCTTCGGCCGTGCGGTGCCTCCGTCACGCC (ssDNA, 2'-OMe C30, 3'-idT) [ARC1223], which Kd [4] is on record?
Its Kd is 36 nM.

Which Kd [5] does the source give for GGCGTGCAGTGCCTTCGGCCGTGCGGTGCCTCCGTCACGCC (ssDNA, 2'-OMe at 1; 3'-idT) [ARC1194] here?
Its Kd is 3 nM.

GGCGTGCAGTGCCTTCGGCCGTGCGGTGCCTCCGTCACGCC (ssDNA, 2'-OMe at 23; 3'-idT) [ARC1216] was tested. Which Kd [6] did it give?
Its Kd is 0.6 nM.

How did the Kd [6] turn out when GGCGTGCAGUGCCTTCGGCCGTGCGGTGCCTCCGTCACGCC (ssDNA, 2'-OMe at 10 (mU); 3'-idT) [ARC1203] was run?
Its Kd is 3 nM.

How did the Kd [7] turn out when GGCGTGCAGTGCCTTCGGCCGTGCGGTGCCTCCGTCACGCC (ssDNA, 2'-OMe at 11,17,18; 3'-idT) [ARC1238] was run?
Its Kd is 2 nM.

For GGCGTGCAGTGCCTTCGGCCGTGCGGTGCCTCCGTCACGCC (ssDNA, 2'-OMe at 37; 3'-idT) [ARC1230], which Kd [5] is on record?
The Kd was 3 nM.

With GGCGTGCAGTGCCTTCGGCCGTGCGGTGCCTCCGTCACGCC (ssDNA, 2'-OMe at 11,12,13,17,18,19; 3'-idT) [ARC1240] as the binder, how does the Kd [6] read?
Its Kd is 4 nM.

GGCGTGCAGTGCCTTCGGCCGTGCGGTGCCTCCGTCACGCC (ssDNA, 2'-OMe at 29; 3'-idT) [ARC1222] was tested. Which Kd [6] did it give?
The Kd was 0.9 nM.

For GGCGTGCAGTGCCTTCGGCCGTGCGGTGCCTCCGTCACGCC (ssDNA, 2'-OMe at 3; 3'-idT) [ARC1196], which Kd [5] is on record?
Its Kd is 2 nM.

With GGCGTGCAGTGCCTTCGGCCGTGCGGTGCCTCCGTCACGCC (ssDNA, 2'-OMe at 34; 3'-idT) [ARC1227] as the binder, how does the Kd [6] read?
Its Kd is 3 nM.

How did the Kd [7] turn out when GGCGTGCAGTGCCTTCGGCCGTGCGGTGCCTCCGTCACGCC (ssDNA, 2'-OMe at 20; 3'-idT) [ARC1213] was run?
The Kd was 6 nM.

GGCGTGCAGTGCCTTCGGCCGTGCGGTGCCTCCGUCACGCC (ssDNA, 2'-OMe at 35 (mU); 3'-idT) [ARC1228] was tested. Which Kd [7] did it give?
The Kd was 2 nM.

With GGCGTGCAGTGCCTTCGGCCGTGCGGTGCCTCCGTCACGCC (ssDNA, 2'-OMe at 28; 3'-idT) [ARC1221] as the binder, how does the Kd [7] read?
Its Kd is 1 nM.

How did the Kd [5] turn out when GGCGTGCAGTGCCTTCGGCCGTGCGGTGCCTCCGTCACGCC (ssDNA, 2'-OMe at 4; 3'-idT) [ARC1197] was run?
The Kd was 2 nM.

With GGCGUGCAGUGCCUUCGGCCGTGCGGTGCCTCCGTCACGCC (mixed, 2'-OMe at 1-5, 9-19, 37-41, 3'-idT) [ARC1341] as the binder, how does the Kd [4] read?
Its Kd is 22.5 nM.

GGAGCCACACGACATTGGCGGGTTGTAATTACCACGCATGGCTCC (mixed, 2'-OH purines, deoxy pyrimidines) [rRdY minimer SEQ 189] was tested. Which Kd [3] did it give?
The Kd was 1 nM.

B7: AMX238.A11 (ssDNA)
DNA: CTACCTACGATCTGACTAGCGGAATGAGAGTGTTGGTGGATTGCTCAGGTCTGCTGGCTGCTTACTCTCATGTAGTTCC
B7 was tested. Which binding signal [8] did it give?
The binding signal was 0.85 ratio to no protein.

What about the binding signal [9] of the same binder?
Its binding signal is 4.54 ratio to no protein.

B8: AMX236.C6 (ssDNA)
DNA: CTACCTACGATCTGACTAGCGGAATGAGAGTGCTGGTGGATTGCTCAGGTCTGCTGGCTGCTTACTCTCATGTAGTTCC
B8 was tested. Which binding signal [8] did it give?
The binding signal was 1.06 ratio to no protein.

And the binding signal [9]?
The binding signal was 5.77 ratio to no protein.

B9: AMX236.E2 (ssDNA)
DNA: CTACCTACGATCTGACTAGCGGAATGAGTATGCTGATGGATTGCTCAGGTCTGCTGGCTGCTTACTCTCATGTAGTTCC
What does the source list for B9?
binding signal [8]: 0.93 ratio to no protein; binding signal [9]: 3.59 ratio to no protein

B10: AMX237.G6 (ssDNA)
DNA: CTACCTACGATCTGACTAGCGTGCAGTGCCTATTCCAGGCCGTGCGGTGCCTCCGTCACGCTTACTCTCATGTAGTTCC
With B10 as the binder, how does the Kd [10] read?
The Kd was 0.2 nM.

B11: AMX238.H5 (ssDNA)
DNA: CTACCTACGATCTGACTAGCGTGCAGTGCCTATTCTAGGCCGTGCGGTGCCTCCGTCACGCTTACTCTCATGTAGTTCC
For B11, which Kd [10] is on record?
The Kd was 0.33 nM.

B12: AMX238.E9 (ssDNA)
DNA: CTACCTACGATCTGACTAGCGTGCAGTGCCCATCTTAGGCCGTGCGGTGCCTCCGTCACGCTTACTCTCATGTAGTTCC
Which Kd [10] does the source give for B12 here?
Its Kd is 0.39 nM.

B13: AMX201.B3 (ssRNA)
RNA: GGAGCGCACUCAGCCACAGAGCCCUGAGUGUAUGAUCGCCGAGAUCUAUCGAUGCUUUUUCGACCUCUCUGCUAGC
modifications: 2'-F pyrimidines
For B13, which binding signal [1] is on record?
The binding signal was 1.69 ratio to no protein.

With CCGGCCGTGCGGTGCCUCCGUCACGUUCCGUGCAGUGCCGG (mixed, 2'-OMe/deoxy composite, single PS, 3'-idT) [ARC1546] as the binder, how does the Kd [4] read?
Its Kd is 24 nM.

B14: AMX201.A8 (ssRNA)
RNA: GGAGCGCACUCAGCCACGCUGUACACUGAUGUUGUAACAUGUACCCCCUGGCUGUUUCGACCUCUCUGCUAGC
modifications: 2'-F pyrimidines
With B14 as the binder, how does the binding signal [1] read?
The binding signal was 1.82 ratio to no protein.

GGCCACACGACATTGGCGGGCGAGAGCCACGCATGGCC (mixed, 2'-OH purines, deoxy pyrimidines) [rRdY minimer SEQ 198] was tested. Which Kd [2] did it give?
The Kd was 5 nM.

And the Kd [3]?
The Kd was 3 nM.
